From the supplement of paper PMC9170038

Test system: MS2 coat protein
Assay: apparent KD of MS2 coat protein; designed switch direction (-1 OFF switch, 1 ON switch): -1; higher = weaker reporter binding
How it was run: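 An oligonucleotide input, 200 uM small-molecule ligand, or no input was present during titration of SNAP-549-labelled MS2 coat protein, which was doubled from 0.7 or 1.5 nM to 3 µM. Designed RNA switches had been transcribed on Illumina chips by stalled E. coli RNA polymerase. Apparent KD per design is the median over clusters of curves fitted to normalised cluster fluorescence.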

[1] = Eterna round: R95, input ligand: FMN 200 uM
[2] = Eterna round: R95, input ligand: microRNA oligo, concentration not stated
[3] = Eterna round: R95, input ligand: none
[4] = input ligand: microRNA oligo, concentration not stated

Sequence | apparent KD of MS2 coat protein [1] [nM] | apparent KD of MS2 coat protein [2] [nM] | apparent KD of MS2 coat protein [3] [nM] | apparent KD of MS2 coat protein (input ligand: FMN 200 uM) [nM] | apparent KD of MS2 coat protein [4] [nM] | apparent KD of MS2 coat protein (input ligand: none) [nM]
AGUACUAACACGGAUGUGUUAGUACAAUAAGCUUGUGAAACAUGAGGAUCACCCAUGUCCUCAUAAGCUCGUCUUAU [salish99_TOv2_r3_067] (puzzle: Sensor v3, turn-off variant 2) | 15.5 | 677 | 14.7 |  |  | 
ACAUGAGGAUCACCCAUGUCUGGCUGGUCUGUUCCGGCUGUUGAGGAUAUAGUCCGGUGUUCGCGCUAGAAGGUGAGGGCUGGA [Aenatbe mod 43] (Eterna round: R96, puzzle: Exclusion NG 3) |  |  |  | 54.5 | 32.9 | 57
GGUCCACAUGAGGAUCACCCAUGUUAGGAUAUCUCCUGCCUCCUAAAUGGAAGCAGACAGAGAAGGAACAUCAA [Soanatra] (puzzle: Exclusion 1) |  | 24.5 |  |  |  | 
UAAGGGUGCGUAGGAUAUCGCGGCCGAAUAAAGCGAGAAGGACGCCCGAAUGGGUCGUCCAACAUGAGGAUCACCCAUGUAAAC [Soerre] (Eterna round: R96, puzzle: Exclusion NG 1) |  |  |  | 140 | 36.5 | 50.2
CAGCGACAUGAGGAUCACCCAUGUGGCUUCGUUCCCGCUGGCAAGGAUAUCCAGUCUUCGUGAGAGGAGAAGGUGCAAAAUAAG [Atveso] (Eterna round: R96, puzzle: Exclusion NG 3) |  |  |  | 65.2 | 31.7 | 49.3
GAUUAACAUGAGGAUCACCCAUGUGAGGAUAUGGACUUGCCCACUUACCCUUUAGAGUCUAGAAGGCGCAUCUC [1986#30] (Eterna round: R97, puzzle: Exclusion 1) |  |  |  | 28.7 |  | 20.8
AGAGUGUGAGGAUAUAUGGUGAAGGUGAAGAGAGAGGAGGAGUAGAAGGUACAUGAGGAUCACCCAUGUUUGGA [JR_Exclu4_Sub075] (puzzle: Exclusion 4) | 32.1 | 33 | 40.8 |  |  | 
ACAAGCGAAAGGCUCGUCUUAUUUUUGUAGAGGUCCUAAACAUGAGGAUCACCCAUGUAGUGGCGAUGGUGGAGGUA [JR_SV3TOV2_Sub068] (puzzle: Sensor v3, turn-off variant 2) | 91.2 | 134 | 103 |  |  | 
UGGUGGAAGCAGGAUAUGCUUGUAUUAUUGAUUGCAGAAGGGCUAACAUGAGGAUCACCCAUGUAAGAGGUGUU [JR_E6_Sub056] (puzzle: Exclusion 6) | 303 | 289 | 327 |  |  | 
GCAGGAUAAGUGAGGAUAUACCUCUGGAUACAGAGGUAGAAGGCACAUGAGGAUCACCCAUGUCUAUCACCUGC [Fiskers BMX 4 - 78] (puzzle: Brourd's mod of Exclusion 4) |  | 14.5 |  |  |  | 
CGUGUGUCAGGAUAUACGUUGGGCCAGCAUGGCUAAAGACAGUAGAAGGGACAUGAGGAUCACCCAUGUGGAGU [Eternabot (L2) Solution 4] (Eterna round: R97, puzzle: Exclusion 4) |  |  |  | 571 |  | 78.9
GCCAGAGCAGGAUAUCUAUAUUAUCACAUGAGGAUCACCCAUGUCCAGCGAAAGCUGGAGGGAGAAGGGCUCUGGC [Fiskers Ex 5 - 26] (Eterna round: R96, puzzle: Exclusion 5) |  |  |  | 51 | 60.9 | 104
CUAGAUCUUCGGAUCUAGUACAUGAGGAUCACCCAUGUGACGAGUAGAUCCUCAAACAAGCUUUUUGCUCGUCUUAU [Sensor v3 - Turn-off variant 1 - 20] (Eterna round: R96, puzzle: Sensor v3, turn-off variant 1) |  |  |  | 132 | 16.4 | 194
GCUUGUGUUGAGGAUAUGCGCCGGCUCGCUGGCGCAGAAGGCGGCACAUGAGGAUCACCCAUGUCAGUUCGCGG [salish99_ex6_r004_009] (Eterna round: R97, puzzle: Exclusion 6) |  |  |  | 321 |  | 93.8
UGCUAGUGAGGAUAUGCUGGAAUAAAGAUUUGACGUGGCGAACAUGAGGAUCACCCAUGUAGAAGGCACAAUAC [Ususedes] (puzzle: Exclusion 2) |  | 12.1 |  |  |  | 
AAUAUGUGAGGAUAUGCUUUAAGAAGAAUGAGUUUGAAAUAACAUGAGGAUCACCCAUGUAGAAGGCGCUAAAA [Lollin - Beta 1] (puzzle: Exclusion 2) | 19.4 | 19.3 | 25.9 |  |  | 
AUUAUAAAGGCAGGAUAUACAUGAGGAUCACCCAUGUAUAUCCGAUAAUAAUAUAAGUGCCUCAUGUAGAAGGGCCAUUAUAUA [Same State Mistake] (Eterna round: R96, puzzle: Exclusion NG 2) |  |  |  | 11.1 | 8.76 | 12.4

Sequence | apparent KD of MS2 coat protein [1] [nM] | apparent KD of MS2 coat protein [2] [nM] | apparent KD of MS2 coat protein [3] [nM] | apparent KD of MS2 coat protein (input ligand: FMN 200 uM) [nM] | apparent KD of MS2 coat protein [4] [nM] | apparent KD of MS2 coat protein (input ligand: none) [nM]
GGAUUGUCAGGAUAUCUUAUACUUCAUAAGUGAGGAUAAAUAGAGAAGGGACAUGAGGAUCACCCAUGUAAUAA [Exclusion 4 S1] (Eterna round: R97, puzzle: Exclusion 4) |  |  |  | 152 |  | 36.8
AAGAAACAUGAGGAUCACCCAUGUGAGGAUAUGAAAAAGAAAAGAAAAGAAAGAAGACUCAGAAGGCACAAAGG [salish99-ex1_r3_022] (puzzle: Exclusion 1) | 33.3 | 48.5 | 45.7 |  |  | 
AAGACACAUGAGGAUCACCCAUGUGAGGAUAUUCGAUGCUAAGCGUAAGCUUAGUAUCGGAGAAGGCACAAAGG [Salishxclusion 6 - Jieux - Exclusion 1] (Eterna round: R97, puzzle: Exclusion 1) |  |  |  | 128 |  | 48.2
AGUGGGCUAGGAUAUCGAUGAACUCACAUGAGGAUCACCCAUGUGUCUUUGGUGGGCGCACGAGAAGGAGUAAGAU [Tiorat] (puzzle: Exclusion 5) |  | 36.5 |  |  |  | 
ACUUACUGAGGAUAUACAUAGAUAAACAUGAGGAUCACCCAUGUUCCUAUAAGUAUAUAUGUAGAAGGCAGAAGAA [JR_Ex5_Sub074] (Eterna round: R97, puzzle: Exclusion 5) |  |  |  | 24.2 |  | 14.7
AGUGCGUAUGUGAGGAUAUGCUGGUCCUUGGAUCGGCAGAAGGUACAUGAGGAUCACCCAUGUGGUGUCGUUCU [salish99_Bmod_ex4_104] (puzzle: Brourd's mod of Exclusion 4) | 94 | 409 | 261 |  |  | 
ACAGUUCUGCAAGGAUAUCGUCCUAGUUUGUUUCGAGAAGGUGCUUUUGUUUUUUCCUUUUGUUUACAUGAGGAUCACCCAUGU [JR_ExcNG1_Sub051] (Eterna round: R96, puzzle: Exclusion NG 1) |  |  |  | 15.6 | 16.6 | 18.9
CCGGAAAUACAGGAUAUAGGAGUAAAUAUACUCCUAGAAGGGUAUACAUGAGGAUCACCCAUGUGUCCUACCGG [Fiskers Ex 6 - 67] (puzzle: Exclusion 6) |  | 23.4 |  |  |  | 
AAUUUUGGAGGAUAUACAUCCCAGGAUCCAGUAAUUAAGUUACAUGAGGAUCACCCAUGUAGAAGGUCAAGAGU [Eternabot (L1) Solution 75] (Eterna round: R97, puzzle: Exclusion 2) |  |  |  | 53.3 |  | 44.4
AAGAACGGUAAGGAUAUCCAUGUGAAAUAAAGAGGAGAAGGUACCACAUGAGGAUCACCCAUGUGGCUCUCAAA [EX6 B.30] (Eterna round: R97, puzzle: Exclusion 6) |  |  |  | 13.8 |  | 11.5
UCACGGGACUGAGGAUAUACAUGAACCAUUUUUGUAGAAGGCAGAAUGUUAGAUCAUACACUAAACAUGAGGAUCACCCAUGUU [JR_ExcNG1_Sub025] (Eterna round: R96, puzzle: Exclusion NG 1) |  |  |  | 15.1 | 18.8 | 19.7
GACUAGGGAGGAUAUAUUUACAGUGUACCUCGGAUGAUCGCACUUGAGGAUCACCCAAGUAGAAGGCUCGAGGG [EX2 #28] (Eterna round: R97, puzzle: Exclusion 2) |  |  |  | 30.4 |  | 33.2
CAAAAGCUAGGAUAUACACAAAACGCCUGCAUGCAAACAUCACAUGAGGAUCACCCAUGUAGAAGGAGCGGAAA [EX2 A.21] (Eterna round: R97, puzzle: Exclusion 2) |  |  |  | 22.1 |  | 19.1
GAUUAUGCGAGCUUUAGGGACAUGAGGAUCACCCAUGUUCGUCUUGUUGAUCUAGGUGCACUGACAUACCUAAAUCU [JMF 88] (puzzle: Sensor v3, turn-off variant 1) | 20.9 | 27.7 | 22.4 |  |  | 
AACACGGGAGGAUAUGCGACAGGAAACAUGAGGAUCACCCAUGUGGAUGGUCGUACAAACGUAGAAGGCCCGCCCA [Eternabot (Original) Solution 1] (Eterna round: R97, puzzle: Exclusion 5) |  |  |  | 12.9 |  | 15.3
UUUACAAGCUUAUGAUCCCACAUGAGGAUCACCCAUGUUGCUGCCGGUGACGGUAGCAUAACAUAUGCUCGUCUUAU [JL TOV1 3.57] (Eterna round: R97, puzzle: Sensor, turn-off variant 1) |  |  |  | 1570 |  | 1840
ACAUGAGGAUCACCCAUGUCCGGCUGGUCCGUCUCGGCUGUCGAGGAUAUAGCACGGUAUCCGCGCUAGAAGGCGGGAGCCGGA [Aenatbe mod 85] (Eterna round: R96, puzzle: Exclusion NG 3) |  |  |  | 72.4 | 26 | 39.6
